Assays:
[1] = target: T1, FcgRIIb (human, UniProt P31994 43-217); assay: SPR (Biacore); KD of H240-Kn120/H240-Hl068/L73-k0 divided by KD of this antibody
T1 construct: extracellular domain; Soluble extracellular domain with C-terminal His tag; also called FcγRIIb; CD32B; not shown: His tag attached to the C terminus
T1 sequence (looked up): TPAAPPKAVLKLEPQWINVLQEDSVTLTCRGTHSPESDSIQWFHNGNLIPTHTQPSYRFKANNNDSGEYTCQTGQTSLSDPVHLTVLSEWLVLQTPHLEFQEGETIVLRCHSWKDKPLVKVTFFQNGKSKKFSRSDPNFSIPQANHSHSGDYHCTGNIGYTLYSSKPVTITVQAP
Procedure: (§1) Analysis of interaction between obj ective antibody and the FcγR was carried out using Biacore T100 (GE Healthcare), Biacore T200, Biacore A100, and Biacore 4000.

[2] = target: T2, FcgRIIIaF (human, UniProt P08637 17-208); assay: as above
T2 construct: extracellular domain; Soluble extracellular domain with C-terminal His tag; polymorphic site made after J. Clin. Invest; also called FcγRIIIa F; not shown: His tag attached to the C terminus
Procedure: as §1

[3] = target: T3, FcgRIIIaV (human, UniProt P08637 17-208); assay: as above
T3 construct: extracellular domain; Soluble extracellular domain with C-terminal His tag; polymorphic site made after J. Clin. Invest; also called FcγRIIIa V; not shown: His tag attached to the C terminus
Procedure: as §1

[4] = target: T4, FcgRIa (human, UniProt P12314 16-292); assay: as above
T4 construct: extracellular domain; Soluble extracellular domain with C-terminal His tag, expressed in FreeStyle293 cells; also called FcγRIa; FcγRI; not shown: His tag attached to the C terminus
Procedure: as §1

[5] = target: T5, FcgRIIaR (human, UniProt P12318 34-217); assay: as above
T5 construct: extracellular domain; Soluble extracellular domain with C-terminal His tag; also called FcγRIIa R; FcγRIIa type R; not shown: His tag attached to the C terminus
T5 sequence (looked up): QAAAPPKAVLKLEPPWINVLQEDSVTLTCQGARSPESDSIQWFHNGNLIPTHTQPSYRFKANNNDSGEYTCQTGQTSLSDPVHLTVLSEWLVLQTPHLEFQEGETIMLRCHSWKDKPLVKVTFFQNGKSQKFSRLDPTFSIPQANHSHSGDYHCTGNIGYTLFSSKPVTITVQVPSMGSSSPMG
Procedure: as §1

[6] = target: T6, FcgRIIaH (human, UniProt P12318 34-217); assay: as above
T6 construct: extracellular domain; Soluble extracellular domain with C-terminal His tag; also called FcγRIIa H; FcγRIIa type H; not shown: His tag attached to the C terminus
T6 sequence (looked up): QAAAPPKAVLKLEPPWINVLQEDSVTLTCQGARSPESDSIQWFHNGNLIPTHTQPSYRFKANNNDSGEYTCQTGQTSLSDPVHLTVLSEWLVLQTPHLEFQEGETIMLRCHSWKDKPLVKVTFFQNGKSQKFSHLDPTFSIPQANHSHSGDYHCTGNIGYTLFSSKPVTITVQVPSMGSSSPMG
Procedure: as §1

[7] = target: T1, FcgRIIb; assay: SPR (Biacore), antibody captured, FcgR as analyte
Procedure: (§2) Analysis of interaction between obj ective antibody and the FcγR was carried out using Biacore T100 (GE Healthcare), Biacore T200, Biacore A100, and Biacore 4000. HBS-EP+ (GE Healthcare) was used as the running buffer, and the measurement temperature was set to 25° C. Chips produced by immobilizing the antigen peptide by the amine coupling method to a Series S sensor Chip CM5 (GE Healthcare), chips produced by allowing preliminarily biotinylated antigen peptides to interact with and immobilize onto a Series S Sensor Chip SA (certified) (GE Healthcare), chips produced by immobilizing Protein L (ACTIGEN, BioVision) to Series S Sencor Chip CM5 (GE Healthcare), or chips produced by immobilizing Protein A/G (Thermo Scientific) to Series S Sencor Chip CM5 (GE Healthcare) were used. Antibodies of interest were captured onto these chips, and allowed to interact to each FcγR diluted with running buffer. To regenerate and repeatedly use the chip, the antibodies captured onto the chip were washed off by reacting 10 mM glycine-HCl, pH 1.5.

[8] = target: T2, FcgRIIIaF; assay: SPR (Biacore), antibody captured, FcgR as analyte
Procedure: as §2

[9] = target: T3, FcgRIIIaV; assay: SPR (Biacore), antibody captured, FcgR as analyte
Procedure: as §2

[10] = target: T4, FcgRIa; assay: SPR (Biacore), antibody captured, FcgR as analyte
Procedure: as §2

[11] = target: T5, FcgRIIaR; assay: SPR (Biacore), antibody captured, FcgR as analyte
Procedure: as §2

[12] = target: T6, FcgRIIaH; assay: SPR (Biacore), antibody captured, FcgR as analyte
Procedure: as §2

T3 sequence (P08637 17-208 F176V limits assumed): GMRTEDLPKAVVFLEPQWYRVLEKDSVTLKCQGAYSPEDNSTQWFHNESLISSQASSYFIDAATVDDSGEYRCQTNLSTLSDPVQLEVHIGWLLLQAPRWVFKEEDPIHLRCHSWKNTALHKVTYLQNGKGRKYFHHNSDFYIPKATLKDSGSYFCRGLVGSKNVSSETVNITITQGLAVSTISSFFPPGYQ
T2 sequence (P08637 17-208): as the sequence (P08637 17-208 F176V limits assumed) above, with V160F counted along it
T4 sequence (P12314 16-292): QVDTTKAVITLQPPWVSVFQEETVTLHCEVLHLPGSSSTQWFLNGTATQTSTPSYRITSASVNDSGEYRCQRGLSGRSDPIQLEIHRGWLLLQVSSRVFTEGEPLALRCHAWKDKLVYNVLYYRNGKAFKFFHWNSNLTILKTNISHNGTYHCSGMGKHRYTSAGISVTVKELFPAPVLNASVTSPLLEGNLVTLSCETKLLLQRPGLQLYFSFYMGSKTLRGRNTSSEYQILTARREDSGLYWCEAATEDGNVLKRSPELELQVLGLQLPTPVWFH

B1: H240-Kn172/H240-Hl177/L73-k0 (antibody, human IgG1, kappa)
heavy 1: QDQLVQSGAEVKKPGASVKVSCKASGFNIKDTYIQWVRQAPGQGLEWMGRIDPLRKQTKYREKFEGRVTITADTSTNTAYMELSSLRSEDTAVYYCVRSGREFDYWGQGTLVTVSSASTKGPSVFPLAPSSKSTSGGTAALGCLVKDYFPEPVTVSWNSGALTSGVHTFPAVLQSSGLYSLSSVVTVPSSSLGTQTYICNVNHKPSNTKVDKKVEPKSCDKTHTCPPCPAPEYYWGPMVFLFPPKPKDTLMISRTPEVTCVVVDVSDEDPEVKFNWYVDGVEVHNAKTKPREEQYNATYRVVSVLTVLHQDWLNGKEYKCKVSNKDLPAPMEKTISKAKGQPREPQVCTLPPSRDELTKNQVSLWCLVKGFYPSDIAVEWESNGQPENNYKTTPPVLDSDGSFFLYSKLTVDKSRWQQGNVFSCSVMHEALHNHYTQKSLSLSP
heavy 2: QDQLVQSGAEVKKPGASVKVSCKASGFNIKDTYIQWVRQAPGQGLEWMGRIDPLRKQTKYREKFEGRVTITADTSTNTAYMELSSLRSEDTAVYYCVRSGREFDYWGQGTLVTVSSASTKGPSVFPLAPSSKSTSGGTAALGCLVKDYFPEPVTVSWNSGALTSGVHTFPAVLQSSGLYSLSSVVTVPSSSLGTQTYICNVNHKPSNTKVDKKVEPKSCDKTHTCPPCPAPELLGGPSVFLFPPKPKDTLMISRTPEVTCVVVDVSHEEPEVKFNWYVDGVEVHNAKTKPREEQYNSTYRVVSVLTVLHQDWLNGKEYKCKVSNDALPKPQEETISKAKGQPREPQVYTLPPSRCELTKNQVSLSCAVKGFYPSDIAVEWESNGQPENNYKTTPPVLDSDGSFFLVSKLTVDKSRWQQGNVFSCSVMHEALHNHYTQKSLSLSP
light: DIQMTQSPSSLSASVGDRVTITCRASQDIHKYIAWYQQKPGQAPRLLIQYTSTLQPGVPSRFSGSGSGTDYTFTISSLQPEDIATYYCLQYEQLRTFGGGTKVEIKRTVAAPSVFIFPPSDEQLKSGTASVVCLLNNFYPREAKVQWKVDNALQSGNSQESVTEQDSKDSTYSLSSTLTLSKADYEKHKVYACEVTHQGLSSPVTKSFNRGEC
notes: Heterodimerized anti-epiregulin IgG1 antibody; I332M introduced into H240-Kn120 and I332Q into H240-Hl068; also called H240-Kn172/H240-HI177/L73-k0
For B1, the “Relative KD” value [1] was 0.9, the “Relative KD” value [2] was 1.1 and the “Relative KD” value [3] was 1.6. The “Relative KD” value [4] was 0.6, the “Relative KD” value [5] was 0.7 and the “Relative KD” value [6] was 0.7. The Kd [7] was 160 nM, the Kd [8] was 2 nM and the Kd [9] was 0.22 nM. The Kd [10] was 0.25 nM, the Kd [11] was 29 nM and the Kd [12] was 57 nM.

B2: H240-Kn173/H240-Hl068/L73-k0 (antibody, human IgG1, kappa)
heavy 1: QDQLVQSGAEVKKPGASVKVSCKASGFNIKDTYIQWVRQAPGQGLEWMGRIDPLRKQTKYREKFEGRVTITADTSTNTAYMELSSLRSEDTAVYYCVRSGREFDYWGQGTLVTVSSASTKGPSVFPLAPSSKSTSGGTAALGCLVKDYFPEPVTVSWNSGALTSGVHTFPAVLQSSGLYSLSSVVTVPSSSLGTQTYICNVNHKPSNTKVDKKVEPKSCDKTHTCPPCPAPEYYWGPMVFLFPPKPKDTLMISRTPEVTCVVVDVSDEDPEVKFNWYVDGVEVHNAKTKPREEQYNATYRVVSVLTVLHQDWLNGKEYKCKVSNKDLPAPQEKTISKAKGQPREPQVCTLPPSRDELTKNQVSLWCLVKGFYPSDIAVEWESNGQPENNYKTTPPVLDSDGSFFLYSKLTVDKSRWQQGNVFSCSVMHEALHNHYTQKSLSLSP
heavy 2: QDQLVQSGAEVKKPGASVKVSCKASGFNIKDTYIQWVRQAPGQGLEWMGRIDPLRKQTKYREKFEGRVTITADTSTNTAYMELSSLRSEDTAVYYCVRSGREFDYWGQGTLVTVSSASTKGPSVFPLAPSSKSTSGGTAALGCLVKDYFPEPVTVSWNSGALTSGVHTFPAVLQSSGLYSLSSVVTVPSSSLGTQTYICNVNHKPSNTKVDKKVEPKSCDKTHTCPPCPAPELLGGPSVFLFPPKPKDTLMISRTPEVTCVVVDVSHEEPEVKFNWYVDGVEVHNAKTKPREEQYNSTYRVVSVLTVLHQDWLNGKEYKCKVSNDALPKPIEETISKAKGQPREPQVYTLPPSRCELTKNQVSLSCAVKGFYPSDIAVEWESNGQPENNYKTTPPVLDSDGSFFLVSKLTVDKSRWQQGNVFSCSVMHEALHNHYTQKSLSLSP
light: DIQMTQSPSSLSASVGDRVTITCRASQDIHKYIAWYQQKPGQAPRLLIQYTSTLQPGVPSRFSGSGSGTDYTFTISSLQPEDIATYYCLQYEQLRTFGGGTKVEIKRTVAAPSVFIFPPSDEQLKSGTASVVCLLNNFYPREAKVQWKVDNALQSGNSQESVTEQDSKDSTYSLSSTLTLSKADYEKHKVYACEVTHQGLSSPVTKSFNRGEC
notes: Heterodimerized anti-epiregulin IgG1 antibody; I332Q introduced into H240-Kn120; also called H240-Kn173/H240-HI068/L73-k0
In the case of B2, the “Relative KD” value [1] is reported as 0.5, the “Relative KD” value [2] is reported as 1.2 and the “Relative KD” value [3] is reported as 0.9. For the same binder, the “Relative KD” value [4] was 1.3, the “Relative KD” value [5] was 0.5 and the “Relative KD” value [6] was 0.7. The Kd [7] was 280 nM, the Kd [8] was 1.8 nM and the Kd [9] was 0.4 nM. The Kd [10] was 0.12 nM, the Kd [11] was 40 nM and the Kd [12] was 57 nM.

B3: H240-Kn178/H240-Hl068/L73-k0 (antibody, human IgG1, kappa)
heavy 1: QDQLVQSGAEVKKPGASVKVSCKASGFNIKDTYIQWVRQAPGQGLEWMGRIDPLRKQTKYREKFEGRVTITADTSTNTAYMELSSLRSEDTAVYYCVRSGREFDYWGQGTLVTVSSASTKGPSVFPLAPSSKSTSGGTAALGCLVKDYFPEPVTVSWNSGALTSGVHTFPAVLQSSGLYSLSSVVTVPSSSLGTQTYICNVNHKPSNTKVDKKVEPKSCDKTHTCPPCPAPEYYWGPMVFLFPPKPKDTLMISRTPEVTCVVVDVSDEDPEVKFNWYVDGVEVHNAKTKPREEQYNATYRVVSVLTVLHQDWLNGKEYKCKVSNKDLPAPIEYTISKAKGQPREPQVCTLPPSRDELTKNQVSLWCLVKGFYPSDIAVEWESNGQPENNYKTTPPVLDSDGSFFLYSKLTVDKSRWQQGNVFSCSVMHEALHNHYTQKSLSLSP
heavy 2: QDQLVQSGAEVKKPGASVKVSCKASGFNIKDTYIQWVRQAPGQGLEWMGRIDPLRKQTKYREKFEGRVTITADTSTNTAYMELSSLRSEDTAVYYCVRSGREFDYWGQGTLVTVSSASTKGPSVFPLAPSSKSTSGGTAALGCLVKDYFPEPVTVSWNSGALTSGVHTFPAVLQSSGLYSLSSVVTVPSSSLGTQTYICNVNHKPSNTKVDKKVEPKSCDKTHTCPPCPAPELLGGPSVFLFPPKPKDTLMISRTPEVTCVVVDVSHEEPEVKFNWYVDGVEVHNAKTKPREEQYNSTYRVVSVLTVLHQDWLNGKEYKCKVSNDALPKPIEETISKAKGQPREPQVYTLPPSRCELTKNQVSLSCAVKGFYPSDIAVEWESNGQPENNYKTTPPVLDSDGSFFLVSKLTVDKSRWQQGNVFSCSVMHEALHNHYTQKSLSLSP
light: DIQMTQSPSSLSASVGDRVTITCRASQDIHKYIAWYQQKPGQAPRLLIQYTSTLQPGVPSRFSGSGSGTDYTFTISSLQPEDIATYYCLQYEQLRTFGGGTKVEIKRTVAAPSVFIFPPSDEQLKSGTASVVCLLNNFYPREAKVQWKVDNALQSGNSQESVTEQDSKDSTYSLSSTLTLSKADYEKHKVYACEVTHQGLSSPVTKSFNRGEC
notes: Heterodimerized anti-epiregulin IgG1 antibody; K334Y introduced into H240-Kn120; also called H240-Kn178/H240-HI068/L73-k0
B3 was tested, and the “Relative KD” value [1] was 1.4, the “Relative KD” value [2] was 1.6 and the “Relative KD” value [3] was 1.9. For the same binder, the “Relative KD” value [4] was 0.7, the “Relative KD” value [5] was 0.8 and the “Relative KD” value [6] was 0.6. For the same binder, the Kd [7] was 110 nM, the Kd [8] was 1.4 nM and the Kd [9] was 0.19 nM. For the same binder, the Kd [10] was 0.23 nM, the Kd [11] was 26 nM and the Kd [12] was 65 nM.
